Article PMC4973239, “Crystal structure of the human Tip41 orthologue, TIPRL, reveals a novel fold and a binding site for the PP2Ac C-terminus” (Scientific Reports, 2016)

T1: TIPRLΔN, His tag removed with TEV protease (human, UniProt O75663-1 16-272)
T1 construct: plasmid-derived residues left at the N-terminus after TEV cleavage; they form strand β1; TIPRL (TIP41, TOR signaling pathway regulator-like), human, NP_690866.1, with a 15-residue N-terminal deletion; TEV cleavage was usually incomplete; The last 16 C-terminal residues are disordered in the crystal; also called TIPRL (crystal structure); source: E. coli BL21(DE3), purified (Ni Sepharose, TEV …)
T1 sequence: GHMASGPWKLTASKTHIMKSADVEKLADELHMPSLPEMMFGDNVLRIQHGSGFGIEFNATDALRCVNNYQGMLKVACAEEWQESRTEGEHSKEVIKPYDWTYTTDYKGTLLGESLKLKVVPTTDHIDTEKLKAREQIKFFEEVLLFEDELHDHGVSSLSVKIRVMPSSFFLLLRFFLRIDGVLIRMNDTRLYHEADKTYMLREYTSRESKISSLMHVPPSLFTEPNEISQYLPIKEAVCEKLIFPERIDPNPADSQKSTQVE

B1: peptide generated after cleavage with the TEV protease (MGHHHHHHENLYFQ) (peptide)
peptide: MGHHHHHHENLYFQ
notes: hexa-histidine tag and TEV cleavage site of the vector pET-TEV, as released by TEV protease; only LYFQ (site on chain A) or ENLYFQ (site on chain B) is seen in the density; also called TEV site peptide; TEV-derived peptide; source: E. coli BL21(DE3)

Key:
[1] = target: TIPRLΔN, His tag removed with TEV protease (human) (UniProt O75663); test: SEC; size exclusion profiles under different conditions (Fig. S1B), high concentration; HiLoad 26/60 Superdex 75 pg, Tris 20 mM pH 7.5, 100 mM NaCl, 10 mM β-mercaptoethanol
[2] = target: T1, TIPRLΔN, His tag removed with TEV …; test: crystal structure; TIPRLΔN after TEV cleavage, 70–100 mg/ml; hanging drop at 18 °C, phosphate or SPG buffer pH 5.5–6.7, 2 to 3 M NaCl; two molecules in the asymmetric unit; 2.15 Å; settings: both partners purified

Molecule | stoichiometry N [1] | binding result [2]
TIPRLΔN, His tag removed with TEV protease (from UniProt O75663-1 16-272) (domain or fragment) | 2 | 
B1 |  | binds
